These results are taken from PMC2712734 (Nature structural & molecular biology, 2009).

To fix the notation:
B1: CHMP1B, pure recombinant (natural protein, human, UniProt Q7LBR1 1-199, looked up)
chain: MSNMEKHLFNLKFAAKELSRSAKKCDKEEKAEKAKIKKAIQKGNMEVARIHAENAIRQKNQAVNFLRMSARVDAVAARVQTAVTMGKVTKSMAGVVKSMDATLKTMNLEKISALMDKFEHQFETLDVQTQQMEDTMSSTTTLTTPQNQVDMLLQEMADEAGLDLNMELPQGQTGSVGTSVASAEQDELSQRLARLRDQV
B2: GST-CHMP3_(1-150) (domain or fragment, human, UniProt Q9Y3E7 1-150, looked up)
chain: MGLFGKTQEKPPKELVNEWSLKIRKEMRVVDRQIRDIQREEEKVKRSVKDAAKKGQKDVCIVLAKEMIRSRKAVSKLYASKAHMNSVLMGMKNQLAVLRVAGSLQKSTEVMKAMQSLVKIPEIQATMRELSKEMMKAGIIEEMLEDTFES
B3: CHMP3_(1-150) (domain or fragment, human, UniProt Q9Y3E7 1-150, looked up)
chain: B2 chain
B4: CHMP2A, full length, pure recombinant (natural protein, human, UniProt O43633 1-222, looked up)
chain: MDLLFGRRKTPEELLRQNQRALNRAMRELDRERQKLETQEKKIIADIKKMAKQGQMDAVRIMAKDLVRTRRYVRKFVLMRANIQAVSLKIQTLKSNNSMAQAMKGVTKAMGTMNRQLKLPQIQKIMMEFERQAEIMDMKEEMMNDAIDDAMGDEEDEEESDAVVSQVLDELGLSLTDELSNLPSTGGSLSVAAGGKKAEAAASALADADADLEERLKNLRRD
B5: GST-IST1NTD, wild type (domain or fragment, human, UniProt P53990 1-189, looked up)
chain: MLGSGFKAERLRVNLRLVINRLKLLEKKKTELAQKARKEIADYLAAGKDERARIRVEHIIREDYLVEAMEILELYCDLLLARFGLIQSMKELDSGLAESVSTLIWAAPRLQSEVAELKIVADQLCAKYSKEYGKLCRTNQIGTVNDRLMHKLSVEAPPKILVERYLIEIAKNYNVPYEPDSVVMAEAPP
B6: IST1NTD (N-terminal domain of IST1, residues 1-189) (domain or fragment, human, UniProt P53990 1-189, looked up)
chain: B5 chain

Positions count from the first letter of the chain named. A value given as a limit tells only on which side of the number the result lay.

Data set [1] concerns the molecule itself. Kind of data set: negative-stain transmission electron microscopy.
The target of data set [2] is GST-IST1NTD E168R (human, UniProt P53990 1-189, E168R). Kind of data set: SPR. (In general: SPR reads the build-up and loss of mass on a sensor chip optically.)
Data set [3] deals with GST-IST1NTD Y165A (human, UniProt P53990 1-189, Y165A). Kind of data set: SPR.
For data set [4], the target named is GST-IST1NTD Y64D (human, UniProt P53990 1-189, Y64D). Kind of data set: SPR.
Data set [5] concerns the target GST-IST1NTD E67A (human, UniProt P53990 1-189, E67A). The data set can be described thus: SPR.
The target of data set [6] is B4. Kind of data set: pull-down.
The target in data set [7] is B4. Kind of data set: negative-stain transmission electron microscopy.
Data set [8] has as its target T1, GST-CHMP3 I168D, L169D (human, UniProt Q9Y3E7 1-222, I168D | L169D).
T1 sequence (looked up): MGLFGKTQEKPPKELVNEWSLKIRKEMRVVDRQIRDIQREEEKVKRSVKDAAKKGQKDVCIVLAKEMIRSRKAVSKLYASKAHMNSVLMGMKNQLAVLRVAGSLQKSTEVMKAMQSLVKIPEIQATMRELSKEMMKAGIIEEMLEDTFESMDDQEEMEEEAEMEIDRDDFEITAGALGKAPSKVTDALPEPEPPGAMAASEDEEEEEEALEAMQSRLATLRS
Kind of data set: pull-down.

In data set [9] the target is T2, GST-CHMP3 V48D, A64D (human, UniProt Q9Y3E7 1-222, V48D | A64D).
T2 sequence (looked up): T1 sequence (looked up) with V48D, A64D, D168I, D169L
The data set can be described thus: pull-down.

In data set [10] the target is T3, GST-CHMP3, wild type (human, UniProt Q9Y3E7 1-222).
T3 sequence (looked up): T1 sequence (looked up) with D168I, D169L
The data set can be described thus: pull-down.

The target of data set [11] is T4, CHMP3 I168D, L169D (human, UniProt Q9Y3E7 1-222, I168D | L169D).
T4 sequence (looked up): T1 sequence (looked up)
The data set can be described thus: negative-stain transmission electron microscopy.

The target in data set [12] is T5, CHMP3 V48D, A64D (human, UniProt Q9Y3E7 1-222, V48D | A64D).
T5 sequence (looked up): T1 sequence (looked up) with V48D, A64D, D168I, D169L
The data set can be described thus: negative-stain transmission electron microscopy.

In data set [13] the target is B1. Kind of data set: SPR.
Data set [14] concerns the molecule itself. Kind of data set: light scattering at 330 nm + negative-stain transmission electron microscopy.

As for B1, the binding result in data set [1] is reported as “binds”. Moreover, the “fold reduction of binding affinity against wild type IST1NTD” value in data set [2] was over 8 fold; in data set [3] it was over 8 fold; in data set [4], over 8 fold; in [5], 6 fold.
Regarding B2, in data set [6], the binding result was “binds”.
As for B3, the binding result in [7] was “binds”.
Regarding B4, the binding result in data set [8], in data set [9], in data set [10], in [11] and in data set [12] was “binds” in each case.
In general, Kd refers to the constant that tells how readily two partners part at equilibrium. With B5, the Kd in data set [13] is 22 µM.
For B6, in [14], the binding result is “binds”.
